Assay results from US20140274782A1, “AFFINITY REAGENTS AND METHODS FOR DETECTION, PURIFICATION, AND PROTEOMIC ANALYSIS OF METHYLATED PROTEINS” (The Board of Trustees of the Leland Stanford Junior …, priority 2013, published 2014).

B1: DDB1- and CUL4-associated factor 7 (protein, UniProt P61962 1-342, looked up)
DDB1- and CUL4-associated …: MSLHGKRKEIYKYEAPWTVYAMNWSVRPDKRFRLALGSFVEEYNNKVQLVGLDEESSEFICRNTFDHPYPTTKLMWIPDTKGVYPDLLATSGDYLRVWRVGETETRLECLLNNNKNSDFCAPLTSFDWNEVDPYLLGTSSIDTTCTIWGLETGQVLGRVNLVSGHVKTQLIAHDKEVYDIAFSRAGGGRDMFASVGADGSVRMFDLRHLEHSTIIYEDPQHHPLLRLCWNKQDPNYLATMAMDGMEVVILDVRVPCTPVARLNNHRACVNGIAWAPHSSCHICTAADDHQALIWDIQQMPRAIEDPILAYTAEGEINNVQWASTQPDWIAICYNNCLEILRV
B2: RNA-binding protein 15 (protein)
chain: MRTAGRDPVPRRSPRWRRAVPLCETSAGRRVTQLRGDDLRRPATMKGKERSPVKAKRSRGGEDSTSRGERSKKLGGSGGSNGSSSGKTDSGGGSRRSLHLDKSSSRGGSREYDTGGGSSSSRLHSYSSPSTKNSSGGGESRSSSRGGGGESRSSGAASSAPGGGDGAEYKTLKISELGSQLSDEAVEDGLFHEFKRFGDVSVKISHLSGSGSGDERVAFVNFRRPEDARAAKHARGRLVLYDRPLKIEAVYVSRRRSRSPLDKDTYPPSASVVGASVGGHRHPPGGGGGQRSLSPGGAALGYRDYRLQQLALGRLPPPPPPPLPRDLERERDYPFYERVRPAYSLEPRVGAGAGAAPFREVDEISPEDDQRANRTLFLGNLDITVTESDLRRAFDRFGVITEVDIKRPSRGQTSTYGFLKFENLDMSHRAKLAMSGKIIIRNPIKIGYGKATPTTRLWVGGLGPWVPLAALAREFDRFGTIRTIDYRKGDSWAYIQYESLDAAHAAWTHMRGFPLGGPDRRLRVDFADTEHRYQQQYLQPLPLTHYELVTDAFGHRAPDPLRGARDRTPPLLYRDRDRDLYPDSDWVPPPPPVRERSTRTAATSVPAYEPLDSLDRRRDGWSLDRDRGDRDLPSSRDQPRKRRLPEESGGRHLDRSPESDRPRKRHCAPSPDRSPELSSSRDRYNSDNDRSSRLLLERPSPIRDRRGSLEKSQGDKRDRKNSASAERDRKHRTTAPTEGKSPLKKEDRSDGSAPSTSTASSKLKSPSQKQDGGTAPVASASPKLCLAWQGMLLLKNSNFPSNMHLLQGDLQVASSLLVEGSTGGKVAQLKITQRLRLDQPKLDEVTRRIKVAGPNGYAILLAVPGSSDSRSSSSSAASDTATSTQRPLRNLVSYLKQKQAAGVISLPVGGNKDKENTGVLHAFPPCEFSQQFLDSPAKALAKSEEDYLVMIIVRGFGFQIGVRYENKKRENLALTLL
B3: Peptidyl-prolyl cis-trans isomerase-like 4 (protein, UniProt Q8WUA2 1-492, looked up)
Peptidyl-prolyl cis-trans …: MAVLLETTLGDVVIDLYTEERPRACLNFLKLCKIKYYNYCLIHNVQRDFIIQTGDPTGTGRGGESIFGQLYGDQASFFEAEKVPRIKHKKKGTVSMVNNGSDQHGSQFLITTGENLDYLDGVHTVFGEVTEGMDIIKKINETFVDKDFVPYQDIRINHTVILDDPFDDPPDLLIPDRSPEPTREQLDSGRIGADEEIDDFKGRSAEEVEEIKAEKEAKTQAILLEMVGDLPDADIKPPENVLFVCKLNPVTTDEDLEIIFSRFGPIRSCEVIRDWKTGESLCYAFIEFEKEEDCEKAFFKMDNVLIDDRRIHVDFSQSVAKVKWKGKGGKYTKSDFKEYEKEQDKPPNLVLKDKVKPKQDTKYDLILDEQAEDSKSSHSHTSKKHKKKTHHCSEEKEDEDYMPIKNTNQDIYREMGFGHYEEEESCWEKQKSEKRDRTQNRSRSRSRERDGHYSNSHKSKYQTDLYERERSKKRDRSRSPKKSKDKEKSKYR
B4: Apoptosis inhibitor 5 (protein, UniProt Q9BZZ5 2-524, looked up)
Apoptosis inhibitor 5: PTVEELYRNYGILADATEQVGQHKDAYQVILDGVKGGTKEKRLAAQFIPKFFKHFPELADSAINAQLDLCEDEDVSIRRQAIKELPQFATGENLPRVADILTQLLQTDDSAEFNLVNNALLSIFKMDAKGTLGGLFSQILQGEDIVRERAIKFLSTKLKTLPDEVLTKEVEELILTESKKVLEDVTGEEFVLFMKILSGLKSLQTVSGRQQLVELVAEQADLEQTFNPSDPDCVDRLLQCTRQAVPLFSKNVHSTRFVTYFCEQVLPNLGTLTTPVEGLDIQLEVLKLLAEMSSFCGDMEKLETNLRKLFDKLLEYMPLPPEEAENGENAGNEEPKLQFSYVECLLYSFHQLGRKLPDFLTAKLNAEKLKDFKIRLQYFARGLQVYIRQLRLALQGKTGEALKTEENKIKVVALKITNNINVLIKDLFHIPPSYKSTVTLSWKPVQKVEIGQKRASEDTTSGSPPKKSSAGPKRDARQIYNPPSGKYSSNLGNFNYEQRGAFRGSRGGRGWGTRGNRSRGRLY
B5: Hematological and neurological-expressed 1-like protein (protein, UniProt Q9H910 1-190, looked up)
Jupiter microtubule …: MFQVPDSEGGRAGSRAMKPPGGESSNLFGSPEEATPSSRPNRMASNIFGPTEEPQNIPKRTNPPGGKGSGIFDESTPVQTRQHLNPPGGKTSDIFGSPVTATSRLAHPNKPKDHVFLCEGEEPKSDLKAARSIPAGAEPGEKGSARKAGPAKEQEPMPTVDSHEPRLGPRPRSHNKVLNPPGGKSSISFY

Assays:
[1] = target: T1, G9a and GLP (Homo sapiens, UniProt Q96KQ7+Q9H9B1); experiment: Triple SILAC pull-down after UNC0638 treatment of 293T cells, DMSO/UNC0638 ratio of protein captured by 3×MBT; format: cell-based; set-up: endogenous in cells; host or cells: HEK 293T; conditions: for Protein Ratios DMSO/UNC0638: SILAC ratio of protein captured by 3xMBT, 293T cells treated 24 hours with UNC0638 at 2.5 μM or DMSO;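 on all read-outs here: mass spectrometry (Q-Exactive) SILAC quantitation, DMSO/UNC0638 ratio computed after subtracting 3×MBTD355N mutant pull-down background, only proteins with at least twofold 3×MBT over mutant signal considered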
T1 sequence (Q96KQ7 2-1210 limits assumed): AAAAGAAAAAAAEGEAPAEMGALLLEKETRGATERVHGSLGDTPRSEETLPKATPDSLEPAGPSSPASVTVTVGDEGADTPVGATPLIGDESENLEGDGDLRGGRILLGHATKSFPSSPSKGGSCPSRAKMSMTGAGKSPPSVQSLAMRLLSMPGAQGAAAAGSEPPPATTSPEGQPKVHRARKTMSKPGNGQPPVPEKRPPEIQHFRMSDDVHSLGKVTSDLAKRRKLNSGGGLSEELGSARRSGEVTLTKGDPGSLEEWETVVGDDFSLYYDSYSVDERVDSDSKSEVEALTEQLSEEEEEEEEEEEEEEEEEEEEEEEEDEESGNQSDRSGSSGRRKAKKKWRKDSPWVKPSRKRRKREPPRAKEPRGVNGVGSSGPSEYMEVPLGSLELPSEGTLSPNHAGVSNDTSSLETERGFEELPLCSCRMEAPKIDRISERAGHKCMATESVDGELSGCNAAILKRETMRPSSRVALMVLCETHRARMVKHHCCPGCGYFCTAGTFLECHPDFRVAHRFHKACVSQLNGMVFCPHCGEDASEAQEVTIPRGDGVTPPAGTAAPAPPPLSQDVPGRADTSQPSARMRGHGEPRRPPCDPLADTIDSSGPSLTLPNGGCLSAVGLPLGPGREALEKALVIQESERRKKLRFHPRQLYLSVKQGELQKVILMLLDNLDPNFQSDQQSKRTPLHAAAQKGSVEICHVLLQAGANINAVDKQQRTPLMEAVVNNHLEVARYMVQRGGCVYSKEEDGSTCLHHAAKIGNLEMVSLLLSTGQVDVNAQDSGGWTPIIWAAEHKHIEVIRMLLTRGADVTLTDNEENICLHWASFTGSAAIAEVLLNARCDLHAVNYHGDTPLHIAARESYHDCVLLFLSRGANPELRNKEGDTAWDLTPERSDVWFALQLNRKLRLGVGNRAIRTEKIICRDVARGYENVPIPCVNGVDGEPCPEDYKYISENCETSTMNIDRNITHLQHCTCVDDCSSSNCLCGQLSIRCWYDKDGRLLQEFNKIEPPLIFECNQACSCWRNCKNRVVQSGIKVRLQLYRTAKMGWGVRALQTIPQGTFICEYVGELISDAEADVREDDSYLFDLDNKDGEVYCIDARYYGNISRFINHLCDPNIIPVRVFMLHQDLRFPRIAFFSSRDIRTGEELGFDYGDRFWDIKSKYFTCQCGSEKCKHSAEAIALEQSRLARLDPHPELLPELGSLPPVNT
T1 sequence (Q9H9B1 2-1298 limits assumed): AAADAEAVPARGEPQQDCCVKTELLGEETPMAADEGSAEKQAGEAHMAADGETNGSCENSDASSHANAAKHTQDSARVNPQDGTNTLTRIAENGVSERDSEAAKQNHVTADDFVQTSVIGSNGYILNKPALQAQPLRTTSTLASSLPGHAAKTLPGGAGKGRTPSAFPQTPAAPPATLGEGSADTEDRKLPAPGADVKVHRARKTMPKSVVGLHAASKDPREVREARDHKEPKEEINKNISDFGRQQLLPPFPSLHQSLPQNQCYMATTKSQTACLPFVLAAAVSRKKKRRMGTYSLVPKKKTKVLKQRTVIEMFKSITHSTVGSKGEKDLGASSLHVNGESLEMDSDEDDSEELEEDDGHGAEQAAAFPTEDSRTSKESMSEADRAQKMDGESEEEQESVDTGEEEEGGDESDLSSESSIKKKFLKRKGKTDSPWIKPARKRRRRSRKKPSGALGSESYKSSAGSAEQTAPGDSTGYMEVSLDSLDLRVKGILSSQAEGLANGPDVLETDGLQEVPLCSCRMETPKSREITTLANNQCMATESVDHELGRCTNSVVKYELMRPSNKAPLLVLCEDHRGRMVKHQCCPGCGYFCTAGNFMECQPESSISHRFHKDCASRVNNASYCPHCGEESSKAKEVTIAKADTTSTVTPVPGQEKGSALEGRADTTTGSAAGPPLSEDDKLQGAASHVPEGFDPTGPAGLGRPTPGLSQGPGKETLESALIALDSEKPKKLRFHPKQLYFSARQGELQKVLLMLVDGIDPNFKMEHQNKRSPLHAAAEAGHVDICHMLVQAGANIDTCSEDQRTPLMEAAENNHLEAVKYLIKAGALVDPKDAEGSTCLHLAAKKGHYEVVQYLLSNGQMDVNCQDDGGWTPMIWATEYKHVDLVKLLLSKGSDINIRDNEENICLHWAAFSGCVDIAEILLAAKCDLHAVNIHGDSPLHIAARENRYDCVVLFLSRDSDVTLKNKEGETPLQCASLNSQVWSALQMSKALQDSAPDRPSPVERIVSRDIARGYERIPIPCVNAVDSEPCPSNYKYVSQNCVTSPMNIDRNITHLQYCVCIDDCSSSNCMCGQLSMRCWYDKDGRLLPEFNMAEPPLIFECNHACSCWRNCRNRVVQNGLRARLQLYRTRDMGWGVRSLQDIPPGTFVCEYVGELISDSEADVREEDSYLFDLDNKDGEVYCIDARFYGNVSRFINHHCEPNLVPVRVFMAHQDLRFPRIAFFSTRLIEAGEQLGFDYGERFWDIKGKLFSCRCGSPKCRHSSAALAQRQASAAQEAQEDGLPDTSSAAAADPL

[2] = system: 3×MBT domain of L3MBTL1; experiment: Triple SILAC pull-down, 3xMBT/3xMBTD355N ratio (cytoplasmic, nuclear and chromatin fractions of 293T cells); format: binding, human; conditions: SILAC ratio; for Protein Ratios 3xMBT/D355N: pull-down by 3xMBT vs 3xMBTD355N, 293T cells;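 on all read-outs here: proteins quantified with MaxQuant, requiring at least two unique peptides and quantification in both label directions, normalized to the mean of proteins from a digested loading control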

Row | Molecule | Protein Ratios DMSO/UNC0638 [1] | Protein Ratios 3xMBT/D355N [2] | Relative to UNC0638 UNC Heavy ([1]; SILAC ratio DMSO/UNC0638 of protein pulled down with 3xMBT, UNC0638 in heavy SILAC media) | Relative to UNC0638 UNC Light ([1]; SILAC ratio DMSO/UNC0638 of protein pulled down with 3xMBT, UNC0638 in light SILAC media) | Relative to UNC0638 Average ([1]; average of UNC Light and UNC Heavy experiments) | Candidate G9a/GLP target ([1]; reduced association with 3xMBT after UNC0638 treatment) | 3xMBT/D355N UNC Heavy ([2]; pull-down 3xMBT vs 3xMBTD355N, experiment with UNC0638 in heavy SILAC media) | 3xMBT/D355N UNC Light ([2]; pull-down 3xMBT vs 3xMBTD355N, experiment with UNC0638 in light SILAC media)
1 | B1 | 1.5 | 2.8 |  |  |  |  |  | 
2 | B2 | 1.9 | 9.9 | 1.65 log base 2 | 0.26 log base 2 | 0.96 log base 2 | ✓ | 2.14 log base 2 | 4.48 log base 2
3 | B3 | 1.4 | 4.0 |  |  |  |  |  | 
4 | B4 | 1.6 | 8.6 |  |  |  |  |  | 
5 | B5 | 1.6 | 8.9 |  |  |  |  |  | 
